The experiment addresses human IL-2 (Miltenyi) (human) (UniProt P60568). Briefly: SPR. (SPR reads the build-up and loss of mass on a sensor chip optically.)

Chain of human IL-2 (Miltenyi) (human) (P60568 21-153 limits assumed): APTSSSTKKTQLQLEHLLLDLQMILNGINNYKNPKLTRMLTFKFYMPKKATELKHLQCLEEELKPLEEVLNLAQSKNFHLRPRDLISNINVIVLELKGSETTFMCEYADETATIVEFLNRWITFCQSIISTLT

B1: GS_hCD25.b (protein, part only; not given: Fusion partner and linker, part only)
chain, part: ELCDDDPPEIPHATFKAMAYKEGTMLNCECKRGFRRIKSGSLYMLCTGNSSHSSWDNQCQCTSSATRNTTKQVTPQPEEQKERKTTEMQSPMQPVDQASLPGHCREPPPWENEATERIYHFVVGQMVYYQCVQGYRALHRGPAESVCKMTHGKTRWTQPQLICTGEMETSQFPGEEKPQASPEGRPESETSCLVTTTDFQIQ
A word on the Kd: it is the concentration at which binding is half-saturated. A lower Kd goes with tighter binding. For orientation: kon means the rate constant with which the complex forms. Read a high kon as faster complex formation. Consider B1, for which the Kd amounted to 12 nM and the kon turned out to be 1.1e+07 M⁻¹ s⁻¹.

B2: GS_hCD25.d (protein, part only; not given: Fusion partner and linker, part only)
chain, part: ELCDDDPPEIPHATFKAMAYKEGTMLNCECKRGFRRIKSGSLYMLCTGNSSHSSWDNQCQCTSSATRNTTKQVTPQPEEQKERKTTEMQSPMQPVDQASLPGHCREPPPWENEATERIYHFVVGQMVYYQCVQGYRALHRGPAESVCKMTHGKTRWTQPQLICTG
What is called koff is a measure of how fast the partners let go of each other. Read a low koff as a long-lived complex. On to B2, for which the Kd amounted to 12 nM, the koff is 0.063 s⁻¹ and the kon is 5.4e+06 M⁻¹ s⁻¹.

(Values after patent publication US20230416364A1.)
